The text below walks through data of PMC13324855.

Experiment [1] has as its target SARS-CoV-1 receptor-binding domain (RBD), wild type (SARS-CoV-1). In words: flow cytometry on cells. Background: In flow cytometry, cells or beads pass a laser one at a time.
For experiment [2], the target named is SARS-CoV-2 spike receptor-binding domain, Wuhan-Hu-1 (WT RBD) (SARS-CoV-2) (UniProt P0DTC2). The experiment can be described thus: flow cytometry on cells.

Values joined by “and” are separate entries in the source; they are usually repeats but may differ in a detail not shown here. Equal entries are not always repeated.

By Kd is commonly meant the constant that tells how readily two partners part at equilibrium. High values mean weaker binding, low ones tighter binding. The term EC25 denotes the point of the concentration-response curve where the effect stands at 25%. A high value points to a need for much substance. For the substance “angiotensin converting enzyme 2 (ACE2) peptidase domain, ACE2D (domain or fragment)”, the Kd in experiment [1] was 1.51 nM and 1.72 nM and 1.9 nM. In addition, the EC25 in experiment [2] was determined as 2 nM.
